Test results from article PMC3867403.
Values belong to the substance of their own block, whether it stands above or below them.

Columns and labels:
[1] = biological target: ALK5-Flag (transforming growth factor-β receptor 1, TGFBR1) (UniProt P36897)
[2] = biological target: ALK5-Flag (transforming growth factor-β receptor 1, TGFBR1) (UniProt P36897); remark: listed apart in the source

UniProt P36897, sequence (P36897 34-503): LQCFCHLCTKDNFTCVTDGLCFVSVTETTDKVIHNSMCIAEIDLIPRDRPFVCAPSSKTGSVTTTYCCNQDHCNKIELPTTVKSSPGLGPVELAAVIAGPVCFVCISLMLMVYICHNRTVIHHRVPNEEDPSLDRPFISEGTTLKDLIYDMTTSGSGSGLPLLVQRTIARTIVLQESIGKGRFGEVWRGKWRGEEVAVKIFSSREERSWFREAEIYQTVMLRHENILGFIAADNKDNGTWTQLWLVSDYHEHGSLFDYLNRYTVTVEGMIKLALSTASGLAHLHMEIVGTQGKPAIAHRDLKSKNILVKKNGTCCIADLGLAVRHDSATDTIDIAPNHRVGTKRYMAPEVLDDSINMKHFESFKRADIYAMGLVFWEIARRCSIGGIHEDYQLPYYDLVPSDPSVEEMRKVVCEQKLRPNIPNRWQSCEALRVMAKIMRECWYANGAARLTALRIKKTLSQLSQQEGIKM

rate constant 1 of healing of scratched HTCE cells, GST-Lum in basic medium [1]: 5.37 Δ%/h
rate constant 2 of healing of scratched HTCE cells, GST-Lum in basic medium [1]: 14.8 Δ%/h
rate constant 1 of healing of scratched HTCE cells, GST-Lum with the ALK5 inhibitor SB431542 (10 µM); monophasic, no rate constant 2 [2]: 1.89 Δ%/h
Substance: GST-Lum (recombinant GST-lumican fusion protein) (from UniProt P51885 19-338) (natural protein)

rate constant 1 of healing of scratched HTCE cells, GST-LumC50 in basic medium [1]: 5.35 Δ%/h
rate constant 2 of healing of scratched HTCE cells, GST-LumC50 in basic medium [1]: 14 Δ%/h
Substance: GST-LumC50 (GST fusion with the C-terminal 50 amino acids of Lum) (domain or fragment)

rate constant 1 of healing of scratched HTCE cells, LumC13 peptide [1]: 4.62 Δ%/h
rate constant 2 of healing of scratched HTCE cells, LumC13 peptide [1]: 13.5 Δ%/h
Substance: LumC13 peptide (the last C-terminal 13 amino acids of Lum)

rate constant 1 of healing of scratched HTCE cells, LumC13C-A peptide [1]: 5.1 Δ%/h
rate constant 2 of healing of scratched HTCE cells, LumC13C-A peptide [1]: 13.9 Δ%/h
Substance: LumC13C-A peptide (LumC13 with the cysteine substituted with alanine)
